Substrate: NCC(N)C(=O)O
Assay: purified protein
Assay type: biochemical, Salmonella enterica
Details: potassium phosphate pH 8.0, 28 °C, PLP, NADH, LDH coupling

B1: Diamino propionic acid (DAP) ammonia lyase (Salmonella enterica subsp. enterica serovar Typhimurium str. LT2) (protein)
chain: MHELIKYQFNTRRKKYGTGAALSLLNGNVGHEVLAFHKKLPNYAVTPLHNLAHLSQRLGLGSIHIKDESWRFGLNAFKGLGGSYAVGKYLADKLQCDINSLSFAALNTPEIKEKIKDCVFVTATDGNHGRGVAWAAEQLGLKAVVYMPKGSSLIRAENIRHHGAECTITDLNYDDAVRLAHRMAQTKGWVLLQDTAWTGYEEIPTWIMQGYMTLAVEAYEQLAETNSPLPTHLILQAGVGSFAGSVMGYFVEKMQENIPNIIVVEPHQANCLYQSAVMDDGQPHCVTGDMATIMAGLACGEPNIISWPIIRDNTSCFISADDCLAAKGMRISAAPRPGTDTPFISGESGAIGVGLLYELMNNMHYQDLANRLQLDASAHVLLISTEGDTSPDIYEDIVWNGRSA
  Km: 0.685 mM

Source: paper PMC101404
